Assay: soluble on expression in E. coli; label from the status in PepcDB or PDB records

| Sequence | soluble on expression in E. coli |
| --- | --- |
| GHMGLEPYEISTLFEQRQAMLQSIKEGVVAVDDRGEVTLINDAAQELLNYRKSQDDEKLSTLSHSWSQVVDVSEVLRDGTPRRDEEITIKDRLLLINTVPVRSNGVIIGAISTFRDKT | soluble |
| GHMQTQGLAKDAWEIPRESLRLEVKLGQGCFGEVWMGTWNGTTRVAIKTLKPGTMSPEAFLQEAQVMKKLRHEKLVQLYAVVSEEPIYIVTEYMSKGCLLDFLKGEMGKYLRLPQLVDMAAQIASGMAYVERMNYVHRDLRAANILVGENLVCKVADFGLARLIEDNEYTARQGAKFPIKWTAPEAALYGRFTIKSDVWSFGILLTELTTKGRVPYPGMVNREVLDQVERGYRMPCPPECPESLHDLMCQCWRKDPEERPTFEYLQAFLEDYFTSTEPQYQPGENL | soluble |
| GHPTLKTPESVTGTWKGDVKIQCIYDPLRGYRQVLVKWLVRHGSDSVTIFLRDSTGDHIQQAKYRGRLKVSHKVPGDVSLQINTLQMDDRNHYTCEVTWQTPDGNQVIRDKIIELRVRK | soluble |
| GHVETIKNTFLNPKSNKVLVVAHRGNWRSAPENSTAAIDSAIAMKVDIVEIDIQKTKDGQLILMHDNTLDRTTTGKGEIKNWTLADIKKLKLKDKDGKVTNYVVPTLEEALLTAKGKIMVNLDKAYDIFDDVYAILEKTETQNQVIMKGGQPIETVKREFGSYLDKVLYMPVIDLGNKEAEKIITDYLKELRPAAFEIIYSDPKNPLPPKIKQLLFKKSLIWYNTLWGSLAGNHDDNLALTDPEKSYGYLIEQLGARILQTDQPAYLLDYLRKKGWHN | soluble |
| GIRSLDGQEDEFDANEQEEIEAKRECALRGRVSVAITPAQSREHGQGDQHGGDRSTHTDDPQAGPWHSAAPAQLSDSIRTCIDAIVDRYVTRRDADPVAKRHALAAALVELRAVGVSHPAVAPLTATIWRLMREHLRAYDKATAAENLLALRTRLLELMPSELEPVPALRNFHLLLPLILLNAEKPRRRVDRTHAITRLNTLLIEQPQQAAQEVRP | not soluble |
| GIVPYGGNLTVLDLVQKYIGQKKGVRHNTQANYDFVINIIKKEEFGTRRIDKIKLSDAKAWFIKLQADGRGYSSIHSVRGIVRPAFQMAVEDDLLRKNPFEFQLCTVVVNDSVTRQAITKEQEELFLEFIRNDDHYSKYYNGMFILFKTGLRISEFCGLTVKDIDLQERKINVNHQLQRTRGMQYVIEDTKTSSGTRMLPMTDEVYECFEQIVKNRKKVRVEPIVDGYSRFLFLDKKDMPEVALHWEKHFQWALGKYNRTHEEQMPKITPHVCRHTYCSNMAKAGMNPKALQYLMGHSDIGVTLNVYTHLGLIDAKEEMNRIAKLA | not soluble |
| GKPSWLGGGSTQPAQTIPWGIERVKAPSVWSITDGSVSVIQVAVLDTGVDYDHPDLAANIAWCVSTLRGKVSTKLRDCADQNGHGTHVIGTIAALNNDIGVVGVAPGVQIYSVRVLDARGSGSYSDIAIGIEQAILGPDGVADKDGDGIIAGDPDDDAAEVISMSLGGPADDSYLYDMIIQAYNAGIVIVAASGNEGAPSPSYPAAYPEVIAVGAIDSNDNIASFSNRQPEVSAPGVDILSTYPDDSYETLMGTAMATPHVSGVVALIQAAYYQKYGKILPVGTFDDISKNTVRGILHITADDLGPTGWDADYGYGVVRAALAVQAALG | soluble |
| GKVAKPVLLHQSSTEVSSTNQVEVPDTTQSSPVSISSGLNSDPDMVDSPVVTGVSGMAVASVMGSLSQSATVFMSEVTNEAVYTMSPTAGPNHHLLSPDASQGLVLAVSSDGHKFAFPTTGSSESLSMLPTNVSEELVLSTTLDGGRKIPETTMNFDPDCFLNNPKQGQTYGGGGLKAEMVSSNIRHSPPGERSFSFTTVLTKEIKTEDTSFEQQMAKEAYSSSAAAVAASSLTLTAGSSLLPSGGGLSPSTTLEQMDFSAIDSNKDYTSSFSQTGHSPHIHQTPSPSFFLQDASKPLPVEQNTHSSLSDSGGTFVMPTVKTEASSQTSSCSGHVETRIESTSSLHLMQFQANFQAMTAEGEVTMETSQAAEGSEVLLKSGELQACSSEHYLQPETNGVIRSAGGVPILPGNVVQGLYPVAQPSLGNASNMELSLDHFDISFSNQFSDLINDFISVEGGSSTIYGHQLVSGDSTALSQSEDGARAPFTQAEMCLPCCSPQQGSLQLSSSEGGASTMAYMHVAEVVSAASAQGTLGMLQQSGRVFMVTDYSPEWSYPEGGVKVLITGPWQEASNNYSCLFDQISVPASLIQPGVLRCYCPAHDTGLVTLQVAFNNQIISNSVVFEYKARALPTLPSSQHDWLSLDDNQFRMSILERLEQMERRMAEMTGSQQHKQASGGGSSGGGSGSGNGGSQAQCASGTGALGSCFESRVVVVCEKMMSRACWAKSKHLIHSKTFRGMTLLHLAAAQGYATLIQTLIKWRTKHADSIDLELEVDPLNVDHFSCTPLMWACALGHLEAAVVLYKWDRRAISIPDSLGRLPLGIARSRGHVKLAECLEHLQRDEQAQLGQNPRIHCPASEEPSTESWMAQWHSEAISSPEIPKGVTVIASTNPELRRPRSEPSNYYSSESHKDYPAPKKHKLNPEYFQTRQEKLLPTALSLEEPNIRKQSPSSKQSVPETLSPSEGVRDFSRELSPPTPETAAFQASGSQPVGKWNSKDLYIGVSTVQVTGNPKGTSVGKEAAPSQVRPREPMSVLMMANREVVNTELGSYRDSAENEECGQPMDDIQVNMMTLAEHIIEATPDRIKQENFVPMESSGLERTDPATISSTMSWLASYLADADCLPSAAQIRSAYNEPLTPSSNTSLSPVGSPVSEIAFEKPNLPSAADWSEFLSASTSEKVENEFAQLTLSDHEQRELYEAARLVQTAFRKYKGRPLREQQEVAAAVIQRCYRKYKQLTWIALKYALYKKMTQAAILIQSKFRSYYEQKKFQQSRRAAVLIQKYYRSYKKCGKRRQARRTAVIVQQKLRSSLLTKKQDQAARKIMRFLRRCRHSPLVDHRLYKRSERIEKGQGT | soluble |
| GLIIGPEEDYDPGYFNNESDIIFQDLEKLKSHPAYLVVFLRYILSQADPGPLLFYLCSEVYQQTNPKDSRSLGKDIWNIFLEKNAPLRVKIPEMLQAEIDLRLRNNEDPRNVLCEAQEAVMLEIQEQINDYRSKRTLGLGSLYGENDLLGLDGDPLRERQMAEKQLAALGDILSKYEEDRSAPMDFAVNTFMSHAGIRLRESR | soluble |
| GMADAPIDIFQSILSRKSIRAFTDQPVTQETIREILKLAARAPSGTNLQPWQVIVLTGKILQKVGQELSQLVLSGIKGEREYHYYPRQWREPYLSRRRKVGLDLYKSLGIQKGDQEKMLHQKAKNFLFYGAPVGLLFTIDHDMEMGSWLDLGMFMQTIMLAARGFGLDTCAQAAFADYHKQIRSLLSVPSDRHIICGMALGYRDMNAPENNFETEREPIDNFVHFIKSYP | soluble |
| GMDPKHGNLFADVPVGAPDEIFQPLLERKGLKIERIISNGQASPPGFWYDSPQDEWVMVVSGSAGIECEGDTAPRVMRPGDWLHVPAHCRHRVAWTDGGEPTVWLAVHCDAA | soluble |
| GMEVNQPDIVAQVQAAFVEYERALVENDIEAMNALFWHTPETVRYGIAEVQHGGEAIRAWRERCEPVPKSRKLHRTVVTTFGTDFATVSTEFTSDATPLLGRQMQTWARLSPADGWKIVAAHVSLIAMP | soluble |
| GMGRILREGAGWRLGWDETAHRYPGLVGTTDWAVELTAAEMADFCRLVQQLAETIAAIAPELMPEERLQIEAESALLWLEAEGFADAYELRLILASDRRVEACWPAAAVPALVAATHTLKGF | soluble |
| GMIYSKVENFINENKQNAIFTEGASHENIGRIEENLQCDLPNSYKWFLEKYGAGGLFGVLVLGYNFDHASVVNRTNEYKEHYGLTDGLVVIEDVDYFAYCLDTNKMKDGECPVVEWDRVIGYQDTVADSFIEFFYNKIQEAKDDWDEDEDWDD | soluble |
| GMLESTKQFLKKYNINDRVLKLYETAMNDIQNQFKILDDIREFNQLKVLNAFQEERISEAHFTNSSGYGYGDIGRDSLDAVYARVFNTESALVRPHFVNGTHALGAALFGNLRPGNTMLSVCGEPYDTLHDVIGITENSNMGSLKEFGINYKQVDLKEDGKPNLEEIEKVLKEDESITLVHIQRSTGYGWRRALLIEDIKSIVDCVKNIRKDIICFVDNCYGEFMDTKEPTDVGADLIAGSLIKNIGGGIAPTGGYLAGTKDCIEKTSYRLTVPGIGGECGSTFGVVRSMYQGLFLAPHISMEALKGAILCSRIMELAGFEVMPKYDEKRSDIIQSIKFNDKDKLIEFCKGIQTGSPIDSFVSCEPWDMPGYTDQVIMAAGAFIQGSSIELSADAPIREPYIAYLQGGLTFDHAKIGILIALSRIVK | soluble |
| GMNPENWLLLRRVVRFGDTDAAGVMHFHQLFRWCHESWEESLESYGLNPADIFPGSRKSEVTPEVALPIIHCQADFRRPIHTGDALAMELRPERLNPNSFQVHFEFRCEEQIAAHALIRHLAINAQTRHRCALPEGIDRWLEASGVGKIGSI | soluble |
| GMNQSIIFTEQLTWDVQLSAIHFTAQQQGMVIDCYIGQKVLEHLAAEKINNSEQALSLFEQFRFDIEEQAEKLIEQEAFDVQGHIQVERVD | soluble |
| GMPENTAMAALLPEESLFFRELVKQWRAQDSYGTWEKKSDMELLAPYVLDKEQRRAIPIIGDPDPEILWRVELFYNAVGLATERASGVMVSPMMKMSHEGFGRMVLIAGRLIVVNKQLRDVHRFGFPSMEKLAEEGDKLVAGALEMIEKFPEVARF | soluble |
| GMPIIIDKDLPARKVLQEENIFVMTKERAETQDIRALKIAILNLMPTKQETEAQLLRLIGNTPLQLDVHLLHMESHLSRNVAQEHLTSFYKTFRDIENEKFDGLIITGAPVETLSFEEVDYWEELKRIMEYSKTNVTSTLHICWGAQAGLYHHYGVQKYPLKEKMFGVFEHEVREQHVKLLQGFDELFFAPHSRHTEVRESDIREVKELTLLANSEEAGVHLVIGQEGRQVFALGHSEYSCDTLKQEYERDRDKGLNIDVPKNYFKHDNPNEKPLVRWRSHGNLLFSNWLNYYVYQETPYVL | soluble |
| GMSDPAGKPCIICVAITGSLPTKENNPAVPITLAEQVESTHEAFEAGASIAHCHVRDDEGRPTSDPDRFAALKEGLERHCPGMIVQLSTGGRSGAGQARGAMLPLCPDMASLSVGSNNFPTRVYENPPDLVDWLAAEMLKYDIKPEIEAFDLSHILQAKRMAGDGRLAGTPYVQFVMGVRNAMPADRDVFDYYIHTVRRLFGEDAPWCAAGIGPSQIVLNEWAISSGGHARTGLEDNVRLDRDRLAPSNAALVGRAVELCEKYERPVATWRQARQILGLRMV | soluble |
| GMSHVSYAEPPAQGWDIHCHTVFSDGTETPRTLVEQARKLGLHGVAIADHDTTAGWDEATEASEEIGLPLLLGTEITAVDEDVSVHMLAFQYDPSNEHISSMFANTRAARLRRTKRMVERLSQDFPITWDDVLAQVKEGERTTIGRPHIADALVAAGVYETRSDAFADAVSAKSKYYIPTPSPSTHEVIAAVKGAGGVVVAAHAGDPQRNRRLLSDEQLDAMIADGLDGLEVWHRGNPPEQRERLLTIAARHDLLVTGGSDWHGKGKPNGLGENLTDDDTVREILCRGVDLIGRVGSSHAA | soluble |
| GMSIPANNSPVRLALIGAGRWGKNYIRTIAGLPGAALVRLASSNPDNLALVPPGCVIESDWRSVVSAPEVEAVIIATPPATHAEITLAAIASGKAVLVEKPLTLDLAEAEAVAAAAKATGVMVWVEHTQLFNPAWEALKADLTSIGPILAVRSEAGNHGPYRPGGVPMLWDWGAHDVSMVLDLMGRDPDSTSASWAARGEKDGGEAGDVTLTLAFSTVEAHIRLCNTMDKCRRLAVFGEAGTLVMDDRATDKLTLHPPQPDGNWPVGQGHALTVTDEMPLTRAVRLFAGAVRQPEPGPSPLELGLRVVRVLGACS | soluble |
| GMSIVGNVENLINGVGELWNKYVKHEFILKMRDGSLPLDIFRYYLIQDGKYVEDMLRALLIASSKGPIDKVTKILNLVFSSRDKGLETHGKLYSKLDISRDVIVKTGYNLINYAYTRHLYYYANLDWNKFLVAWTPCMFGYSIVGDYVIDSPNEVYKTWASFYASTEYKKRIEAILYALDEVSITEDLLNIFINSVRFEIGFWDASLRKDPTVY | soluble |

— the DeepSol protein solubility set
